Data on one molecule can be found in publication PMC3731569 (Cell Research, 2013).

This experiment addresses Human DPP4 extracellular domain (residues 39-766) (human, UniProt P27487 39-766). Briefly: […], ~10 mg/ml in HBS.

Sequence of Human DPP4 extracellular domain (residues 39-766) (P27487 39-766): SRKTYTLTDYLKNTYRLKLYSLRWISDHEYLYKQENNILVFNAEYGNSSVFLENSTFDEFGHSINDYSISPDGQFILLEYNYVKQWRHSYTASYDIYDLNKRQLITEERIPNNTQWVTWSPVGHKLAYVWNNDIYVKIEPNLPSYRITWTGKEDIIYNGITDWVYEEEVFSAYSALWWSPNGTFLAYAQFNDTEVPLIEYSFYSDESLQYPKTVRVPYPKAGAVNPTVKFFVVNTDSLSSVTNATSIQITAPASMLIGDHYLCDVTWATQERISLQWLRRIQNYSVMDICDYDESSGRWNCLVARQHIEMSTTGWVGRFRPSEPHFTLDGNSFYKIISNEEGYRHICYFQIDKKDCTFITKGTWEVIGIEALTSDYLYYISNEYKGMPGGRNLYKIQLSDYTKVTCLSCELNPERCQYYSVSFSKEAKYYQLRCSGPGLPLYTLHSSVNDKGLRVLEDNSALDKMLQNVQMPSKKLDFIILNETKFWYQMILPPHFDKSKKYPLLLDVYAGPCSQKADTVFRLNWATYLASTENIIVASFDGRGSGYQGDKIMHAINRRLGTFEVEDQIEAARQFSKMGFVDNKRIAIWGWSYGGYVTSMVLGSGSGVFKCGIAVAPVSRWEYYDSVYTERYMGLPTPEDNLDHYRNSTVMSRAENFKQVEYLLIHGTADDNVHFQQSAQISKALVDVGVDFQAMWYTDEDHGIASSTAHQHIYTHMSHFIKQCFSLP

B1: MERS-CoV RBD (E367 to Y606) (domain or fragment)
chain: EAKPSGSVVEQAEGVECDFSPLLSGTPPQVYNFKRLVFTNCNYNLTKLLSLFSVNDFTCSQISPAAIASNCYSSLILDYFSYPLSMKSDLSVSSAGPISQFNYKQSFSNPTCLILATVPHNLTTITKPLKYSYINKCSRFLSDDRTEVPQLVNANQYSPCVSIVPSTVWEDGDYYRKQLSPLEGGGWLVASGSTVAMTEQLQMGFGITVQYGTDTNSVCPKLEFANDTKIASQLGNCVEY
As to B1, the binding result is on record as “binds”.
